{
  "source": "patent US20100210473A1",
  "key": {"[1]": {"target": "antigen of Z13e1 scFv ('its antigen')"}, "[2]": {"target": "monomeric gp120 (HIV-1) (HIV-1)", "experiment": "yeast display flow cytometry, gp120 titrated in the absence of sCD4, MFI of antigen binding (sandwich with biotinylated mAb and SA-PE)"}, "[3]": {"target": "gp120 complexed with soluble CD4 (HIV-1)", "experiment": "yeast display flow cytometry, gp120 titrated in the presence of sCD4, MFI of antigen binding (sandwich with biotinylated mAb and SA-PE)"}},
  "data": [
    {"substance": "Z13e1 scFv displayed on yeast", "values": [
      {"measurement": "Kd", "setting": "[1]", "value": 50, "unit": "nM"}
    ]},
    {"substance": "scFv X5 displayed on yeast (X5-pPNLS in EBY100)", "values": [
      {"measurement": "Kd", "setting": "[2]", "value": 14.5, "unit": "nM"},
      {"measurement": "Kd", "setting": "[3]", "value": 1.1, "unit": "nM"}
    ]}
  ]
}
